# Measured values as given in US20220040297A1 (Chugai, published 2022).
# Biological target: T1, CD3ε homodimer protein (human, UniProt P07766 23-126, limits assumed, sulfo-tag or biotin label in some ECL assays)
# T1 construct: also called human CD3ε homodimer protein; CD3 (CD3ε)
# Experiment: SPR, CD3ε homodimer on chip;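 note: biacore SPR with antibody variants flowed as analyte over amine-coupled CD3ε homodimer on a CM chip, bound amount of each single-residue H chain variant over that of parent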
# T1 sequence (P07766 23-126 limits assumed): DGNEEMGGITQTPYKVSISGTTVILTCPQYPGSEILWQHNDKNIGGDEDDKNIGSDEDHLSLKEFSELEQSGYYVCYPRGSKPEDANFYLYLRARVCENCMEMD
row,Binder,ratio of amounts bound vs CE115HA000
1,"CE115HA000 D73R (antibody, name in Kabat numbering, V domains shown) VH: QVQLVESGGGVVQPGRSLRLSCAASGFTFSNAWMHWVRQAPGKGLEWVAQIKAKSNNYATYYAESVKGRFTISRDRSKNSLYLQMNSLKTEDTAVYYCRYVHYGAYYGVDAWGQGTTVTVSS VL: DIVMTQSPLSLPVTPGEPASISCRSSQSLVHSNRNTYLHWYQQKPGQAPRLLIYKVSNRFSGVPDRFSGSGSGTDFTLKISRVEAEDVGVYYCGQGTQVPYTFGQGTKLEIK",1.04
2,"CE115HA000 D101Y (antibody, name in Kabat numbering, V domains shown) VH: QVQLVESGGGVVQPGRSLRLSCAASGFTFSNAWMHWVRQAPGKGLEWVAQIKAKSNNYATYYAESVKGRFTISRDDSKNSLYLQMNSLKTEDTAVYYCRYVHYGAYYGVYAWGQGTTVTVSS VL: DIVMTQSPLSLPVTPGEPASISCRSSQSLVHSNRNTYLHWYQQKPGQAPRLLIYKVSNRFSGVPDRFSGSGSGTDFTLKISRVEAEDVGVYYCGQGTQVPYTFGQGTKLEIK",6.49
3,"CE115HA000 D101P (antibody, name in Kabat numbering, V domains shown) VH: QVQLVESGGGVVQPGRSLRLSCAASGFTFSNAWMHWVRQAPGKGLEWVAQIKAKSNNYATYYAESVKGRFTISRDDSKNSLYLQMNSLKTEDTAVYYCRYVHYGAYYGVPAWGQGTTVTVSS VL: DIVMTQSPLSLPVTPGEPASISCRSSQSLVHSNRNTYLHWYQQKPGQAPRLLIYKVSNRFSGVPDRFSGSGSGTDFTLKISRVEAEDVGVYYCGQGTQVPYTFGQGTKLEIK",0.2
4,"CE115HA000 E61P (antibody, name in Kabat numbering, V domains shown) VH: QVQLVESGGGVVQPGRSLRLSCAASGFTFSNAWMHWVRQAPGKGLEWVAQIKAKSNNYATYYAPSVKGRFTISRDDSKNSLYLQMNSLKTEDTAVYYCRYVHYGAYYGVDAWGQGTTVTVSS VL: DIVMTQSPLSLPVTPGEPASISCRSSQSLVHSNRNTYLHWYQQKPGQAPRLLIYKVSNRFSGVPDRFSGSGSGTDFTLKISRVEAEDVGVYYCGQGTQVPYTFGQGTKLEIK",1.07
5,"CE115HA000 G98D (antibody, name in Kabat numbering, V domains shown) VH: QVQLVESGGGVVQPGRSLRLSCAASGFTFSNAWMHWVRQAPGKGLEWVAQIKAKSNNYATYYAESVKGRFTISRDDSKNSLYLQMNSLKTEDTAVYYCRYVHYDAYYGVDAWGQGTTVTVSS VL: DIVMTQSPLSLPVTPGEPASISCRSSQSLVHSNRNTYLHWYQQKPGQAPRLLIYKVSNRFSGVPDRFSGSGSGTDFTLKISRVEAEDVGVYYCGQGTQVPYTFGQGTKLEIK",0.26
6,"CE115HA000 E61Q (antibody, name in Kabat numbering, V domains shown) VH: QVQLVESGGGVVQPGRSLRLSCAASGFTFSNAWMHWVRQAPGKGLEWVAQIKAKSNNYATYYAQSVKGRFTISRDDSKNSLYLQMNSLKTEDTAVYYCRYVHYGAYYGVDAWGQGTTVTVSS VL: DIVMTQSPLSLPVTPGEPASISCRSSQSLVHSNRNTYLHWYQQKPGQAPRLLIYKVSNRFSGVPDRFSGSGSGTDFTLKISRVEAEDVGVYYCGQGTQVPYTFGQGTKLEIK",1.07
7,"CE115HA000 D73T (antibody, name in Kabat numbering, V domains shown) VH: QVQLVESGGGVVQPGRSLRLSCAASGFTFSNAWMHWVRQAPGKGLEWVAQIKAKSNNYATYYAESVKGRFTISRDTSKNSLYLQMNSLKTEDTAVYYCRYVHYGAYYGVDAWGQGTTVTVSS VL: DIVMTQSPLSLPVTPGEPASISCRSSQSLVHSNRNTYLHWYQQKPGQAPRLLIYKVSNRFSGVPDRFSGSGSGTDFTLKISRVEAEDVGVYYCGQGTQVPYTFGQGTKLEIK",0.63
8,"CE115HA000 D101I (antibody, name in Kabat numbering, V domains shown) VH: QVQLVESGGGVVQPGRSLRLSCAASGFTFSNAWMHWVRQAPGKGLEWVAQIKAKSNNYATYYAESVKGRFTISRDDSKNSLYLQMNSLKTEDTAVYYCRYVHYGAYYGVIAWGQGTTVTVSS VL: DIVMTQSPLSLPVTPGEPASISCRSSQSLVHSNRNTYLHWYQQKPGQAPRLLIYKVSNRFSGVPDRFSGSGSGTDFTLKISRVEAEDVGVYYCGQGTQVPYTFGQGTKLEIK",1.18
9,"CE115HA000 D101M (antibody, name in Kabat numbering, V domains shown) VH: QVQLVESGGGVVQPGRSLRLSCAASGFTFSNAWMHWVRQAPGKGLEWVAQIKAKSNNYATYYAESVKGRFTISRDDSKNSLYLQMNSLKTEDTAVYYCRYVHYGAYYGVMAWGQGTTVTVSS VL: DIVMTQSPLSLPVTPGEPASISCRSSQSLVHSNRNTYLHWYQQKPGQAPRLLIYKVSNRFSGVPDRFSGSGSGTDFTLKISRVEAEDVGVYYCGQGTQVPYTFGQGTKLEIK",1.2
10,"CE115HA000 D101G (antibody, name in Kabat numbering, V domains shown) VH: QVQLVESGGGVVQPGRSLRLSCAASGFTFSNAWMHWVRQAPGKGLEWVAQIKAKSNNYATYYAESVKGRFTISRDDSKNSLYLQMNSLKTEDTAVYYCRYVHYGAYYGVGAWGQGTTVTVSS VL: DIVMTQSPLSLPVTPGEPASISCRSSQSLVHSNRNTYLHWYQQKPGQAPRLLIYKVSNRFSGVPDRFSGSGSGTDFTLKISRVEAEDVGVYYCGQGTQVPYTFGQGTKLEIK",1.38
11,"CE115HA000 G65D (antibody, name in Kabat numbering, V domains shown) VH: QVQLVESGGGVVQPGRSLRLSCAASGFTFSNAWMHWVRQAPGKGLEWVAQIKAKSNNYATYYAESVKDRFTISRDDSKNSLYLQMNSLKTEDTAVYYCRYVHYGAYYGVDAWGQGTTVTVSS VL: DIVMTQSPLSLPVTPGEPASISCRSSQSLVHSNRNTYLHWYQQKPGQAPRLLIYKVSNRFSGVPDRFSGSGSGTDFTLKISRVEAEDVGVYYCGQGTQVPYTFGQGTKLEIK",0.76
12,"CE115HA000 D101V (antibody, name in Kabat numbering, V domains shown) VH: QVQLVESGGGVVQPGRSLRLSCAASGFTFSNAWMHWVRQAPGKGLEWVAQIKAKSNNYATYYAESVKGRFTISRDDSKNSLYLQMNSLKTEDTAVYYCRYVHYGAYYGVVAWGQGTTVTVSS VL: DIVMTQSPLSLPVTPGEPASISCRSSQSLVHSNRNTYLHWYQQKPGQAPRLLIYKVSNRFSGVPDRFSGSGSGTDFTLKISRVEAEDVGVYYCGQGTQVPYTFGQGTKLEIK",1.33
13,"CE115HA000 E61D (antibody, name in Kabat numbering, V domains shown) VH: QVQLVESGGGVVQPGRSLRLSCAASGFTFSNAWMHWVRQAPGKGLEWVAQIKAKSNNYATYYADSVKGRFTISRDDSKNSLYLQMNSLKTEDTAVYYCRYVHYGAYYGVDAWGQGTTVTVSS VL: DIVMTQSPLSLPVTPGEPASISCRSSQSLVHSNRNTYLHWYQQKPGQAPRLLIYKVSNRFSGVPDRFSGSGSGTDFTLKISRVEAEDVGVYYCGQGTQVPYTFGQGTKLEIK",0.91
14,"CE115HA000 G98A (antibody, name in Kabat numbering, V domains shown) VH: QVQLVESGGGVVQPGRSLRLSCAASGFTFSNAWMHWVRQAPGKGLEWVAQIKAKSNNYATYYAESVKGRFTISRDDSKNSLYLQMNSLKTEDTAVYYCRYVHYAAYYGVDAWGQGTTVTVSS VL: DIVMTQSPLSLPVTPGEPASISCRSSQSLVHSNRNTYLHWYQQKPGQAPRLLIYKVSNRFSGVPDRFSGSGSGTDFTLKISRVEAEDVGVYYCGQGTQVPYTFGQGTKLEIK",1.1
15,"CE115HA000 D101Q (antibody, name in Kabat numbering, V domains shown) VH: QVQLVESGGGVVQPGRSLRLSCAASGFTFSNAWMHWVRQAPGKGLEWVAQIKAKSNNYATYYAESVKGRFTISRDDSKNSLYLQMNSLKTEDTAVYYCRYVHYGAYYGVQAWGQGTTVTVSS VL: DIVMTQSPLSLPVTPGEPASISCRSSQSLVHSNRNTYLHWYQQKPGQAPRLLIYKVSNRFSGVPDRFSGSGSGTDFTLKISRVEAEDVGVYYCGQGTQVPYTFGQGTKLEIK",2.25
16,"CE115HA000 E61A (antibody, name in Kabat numbering, V domains shown) VH: QVQLVESGGGVVQPGRSLRLSCAASGFTFSNAWMHWVRQAPGKGLEWVAQIKAKSNNYATYYAASVKGRFTISRDDSKNSLYLQMNSLKTEDTAVYYCRYVHYGAYYGVDAWGQGTTVTVSS VL: DIVMTQSPLSLPVTPGEPASISCRSSQSLVHSNRNTYLHWYQQKPGQAPRLLIYKVSNRFSGVPDRFSGSGSGTDFTLKISRVEAEDVGVYYCGQGTQVPYTFGQGTKLEIK",1.09
17,"CE115HA000 D101T (antibody, name in Kabat numbering, V domains shown) VH: QVQLVESGGGVVQPGRSLRLSCAASGFTFSNAWMHWVRQAPGKGLEWVAQIKAKSNNYATYYAESVKGRFTISRDDSKNSLYLQMNSLKTEDTAVYYCRYVHYGAYYGVTAWGQGTTVTVSS VL: DIVMTQSPLSLPVTPGEPASISCRSSQSLVHSNRNTYLHWYQQKPGQAPRLLIYKVSNRFSGVPDRFSGSGSGTDFTLKISRVEAEDVGVYYCGQGTQVPYTFGQGTKLEIK",0.79
18,"CE115HA000 D101A (antibody, name in Kabat numbering, V domains shown) VH: QVQLVESGGGVVQPGRSLRLSCAASGFTFSNAWMHWVRQAPGKGLEWVAQIKAKSNNYATYYAESVKGRFTISRDDSKNSLYLQMNSLKTEDTAVYYCRYVHYGAYYGVAAWGQGTTVTVSS VL: DIVMTQSPLSLPVTPGEPASISCRSSQSLVHSNRNTYLHWYQQKPGQAPRLLIYKVSNRFSGVPDRFSGSGSGTDFTLKISRVEAEDVGVYYCGQGTQVPYTFGQGTKLEIK",1.26
19,"CE115HA000 G98F (antibody, name in Kabat numbering, V domains shown) VH: QVQLVESGGGVVQPGRSLRLSCAASGFTFSNAWMHWVRQAPGKGLEWVAQIKAKSNNYATYYAESVKGRFTISRDDSKNSLYLQMNSLKTEDTAVYYCRYVHYFAYYGVDAWGQGTTVTVSS VL: DIVMTQSPLSLPVTPGEPASISCRSSQSLVHSNRNTYLHWYQQKPGQAPRLLIYKVSNRFSGVPDRFSGSGSGTDFTLKISRVEAEDVGVYYCGQGTQVPYTFGQGTKLEIK",1.58
20,"CE115HA000 G65E (antibody, name in Kabat numbering, V domains shown) VH: QVQLVESGGGVVQPGRSLRLSCAASGFTFSNAWMHWVRQAPGKGLEWVAQIKAKSNNYATYYAESVKERFTISRDDSKNSLYLQMNSLKTEDTAVYYCRYVHYGAYYGVDAWGQGTTVTVSS VL: DIVMTQSPLSLPVTPGEPASISCRSSQSLVHSNRNTYLHWYQQKPGQAPRLLIYKVSNRFSGVPDRFSGSGSGTDFTLKISRVEAEDVGVYYCGQGTQVPYTFGQGTKLEIK",0.78
